Source: the RNAGym collection of RNA variant scans (doi:10.7554/elife.90254)

B1: LINE1-mini (parent)
chain: GGCAGAGCUCAACACAGCGUGGCAAAGUGGCUGUGGCUAGACUGCC

Variants of: B1
Test: self-cleavage, relative activity (ratio to wild type); higher = more cleavage; in vitro, sequencing; the parent is a self-cleaving ribozyme

First: C8U G21C
Second: A16U A26C
The self-cleavage of the first is higher: 0.25 for the first, 0.06 for the second.

Compared with C15U G33C, A4G A39U is higher in self-cleavage: 0.09 for the first, 0.33 for the second.

First: G1U A4C
Second: U28A C42U
The self-cleavage of the first is lower: 0.06 for the first, 0.22 for the second.

Compared with G5U G29A, U20C A26U is higher in self-cleavage: 0.15 for the first, 0.68 for the second.

First: C10U C13G
Second: A11C G19U
The self-cleavage of the first is higher: 0.09 for the first, 0.04 for the second.

Compared with A24U G36C, G27U A41C is lower in self-cleavage: 0.11 for the first, 0.06 for the second.

First: A12U U43G
Second: G2U U43C
The self-cleavage of the first is higher: 0.12 for the first, 0.06 for the second.

First: C10A G35A
Second: A25U G35U
The self-cleavage of the first is lower: 0.04 for the first, 0.16 for the second.

First: A6U G35C
Second: G1C C46A
The self-cleavage of the first is lower: 0.16 for the first, 0.28 for the second.

Compared with A39C G40C, U9C G22A is lower in self-cleavage: 0.07 for the first, 0.04 for the second.

First: G7U A14U
Second: C13A G36C
The self-cleavage of the first is higher: 0.11 for the first, 0.06 for the second.

Compared with A39C C42U, A6G G17U is lower in self-cleavage: 0.05 for the first, 0.04 for the second.

Compared with G5U G17C, G35A G44U is higher in self-cleavage: 0.06 for the first, 0.09 for the second.

Going from C8G C18G to G5A C46U, the self-cleavage rises from 0.08 to 0.12.

Going from G2C C23G to G27U G29U, the self-cleavage rises from 0.12 to 1.03.

First: U28C C45G
Second: G40C C45G
The self-cleavage of the first is higher: 0.44 for the first, 0.05 for the second.

Compared with G36U C46U, C10G U28G is lower in self-cleavage: 0.1 for the first, 0.08 for the second.

Going from C23G U38C to G17C G29A, the self-cleavage falls from 0.42 to 0.12.

First: U32C A41U
Second: G1A C37U
The self-cleavage of the first is higher: 0.2 for the first, 0.08 for the second.

Going from C8A G30A to G7C U32C, the self-cleavage falls from 0.42 to 0.07.

U9C A12G and C18A G33U are the same in self-cleavage: 0.04 for the first, 0.04 for the second.

Compared with G27C G40C, A6C G19U is higher in self-cleavage: 0.07 for the first, 0.56 for the second.

Going from U9G C42G to G1U G22U, the self-cleavage rises from 0.06 to 0.43.

First: G1C A41U
Second: G30A
The self-cleavage of the first is lower: 0.1 for the first, 1.87 for the second.

Compared with G29C U38A, A26G C42G is lower in self-cleavage: 0.08 for the first, 0.05 for the second.

Going from C10G C15A to A6U G7A, the self-cleavage rises from 0.04 to 0.26.

First: C8G U43C
Second: A25G A26U
The self-cleavage of the first is lower: 0.02 for the first, 0.1 for the second.

First: C8A A24U
Second: G19C U38C
The self-cleavage of the first is higher: 0.34 for the first, 0.28 for the second.

Going from G21C A39G to G2A U43A, the self-cleavage rises from 0.05 to 0.14.

First: G21U G36C
Second: A4G G29C
The self-cleavage of the first is lower: 0.1 for the first, 0.12 for the second.

First: A6C A25U
Second: U20A U28G
The self-cleavage of the first is higher: 0.52 for the first, 0.28 for the second.

Going from G5A U9C to G19C G22U, the self-cleavage rises from 0.04 to 0.51.

Compared with U32C A39U, C10A C13U is lower in self-cleavage: 0.15 for the first, 0.04 for the second.

Compared with G33U G36U, A14C U28G is higher in self-cleavage: 0.05 for the first, 0.07 for the second.

Compared with A26C U28G, U32C C45A is lower in self-cleavage: 0.66 for the first, 0.2 for the second.

First: U9A C13G
Second: G19C C42U
The self-cleavage of the first is lower: 0.23 for the first, 0.25 for the second.

First: C45U
Second: G1A G40U
The self-cleavage of the first is higher: 1.43 for the first, 0.1 for the second.

Compared with A11G C15U, A11U G27U is higher in self-cleavage: 0.03 for the first, 0.13 for the second.

First: G29A G33C
Second: G35C A39G
The self-cleavage of the first is lower: 0.06 for the first, 0.09 for the second.

Compared with G19U C45A, G40A C46G is lower in self-cleavage: 0.43 for the first, 0.11 for the second.

First: C8U C13U
Second: G21U A39G
The self-cleavage of the first is higher: 0.81 for the first, 0.08 for the second.

Going from G21C G22A to C18G U43G, the self-cleavage falls from 0.48 to 0.13.

Compared with G19A U20G, C3A U20C is lower in self-cleavage: 0.59 for the first, 0.19 for the second.

Going from A39G U43A to A25U A41G, the self-cleavage rises from 0.04 to 0.38.

First: A12U A24U
Second: A16C G40A
The self-cleavage of the first is higher: 0.31 for the first, 0.05 for the second.

Compared with U34G G44C, G17U G22A is higher in self-cleavage: 0.07 for the first, 0.26 for the second.

Compared with C37A C45U, U9G A16G is lower in self-cleavage: 0.08 for the first, 0.07 for the second.

First: U32G G40U
Second: C3U A11C
The self-cleavage of the first is higher: 0.11 for the first, 0.06 for the second.

Going from C37U U43G to C31U C37U, the self-cleavage falls from 0.11 to 0.07.

First: G5C G29C
Second: A6G G29A
The self-cleavage of the first is lower: 0.05 for the first, 0.08 for the second.

First: G5A G7A
Second: G19U G40U
The self-cleavage of the first is higher: 0.35 for the first, 0.1 for the second.

First: U20G G21A
Second: U28C G36U
The self-cleavage of the first is higher: 0.69 for the first, 0.11 for the second.

Compared with G1C A12G, A16U U34A is higher in self-cleavage: 0.02 for the first, 0.04 for the second.

Going from A6G C31G to A12C U32A, the self-cleavage falls from 0.05 to 0.03.

First: A39C G44A
Second: A12U G40A
The self-cleavage of the first is lower: 0.08 for the first, 0.21 for the second.

Compared with G19A C42U, U43A C45U is lower in self-cleavage: 0.43 for the first, 0.16 for the second.

First: A39U C42G
Second: C3U G40A
The self-cleavage of the first is lower: 0.03 for the first, 0.12 for the second.

First: C13U G33U
Second: G27A U38C
The self-cleavage of the first is lower: 0.06 for the first, 0.26 for the second.

First: C15A C23G
Second: C3G C15G
The self-cleavage of the first is higher: 0.05 for the first, 0.04 for the second.

Compared with G27U C37A, U28G A41C is higher in self-cleavage: 0.03 for the first, 0.04 for the second.

Compared with G7A G27U, C10U U43G is higher in self-cleavage: 0.16 for the first, 0.19 for the second.

Going from C31G G33U to G5A G35A, the self-cleavage rises from 0.06 to 0.1.

Compared with C37G C45G, A26U G40U is higher in self-cleavage: 0.08 for the first, 0.13 for the second.

Going from U9C A14U to G7A C37U, the self-cleavage rises from 0.07 to 0.11.

Going from C18U U43G to C45G C46G, the self-cleavage rises from 0 to 0.53.

Compared with A12U A25U, U43G is lower in self-cleavage: 0.25 for the first, 0.12 for the second.

Going from A6C A25G to A14C C23U, the self-cleavage falls from 0.18 to 0.12.

Compared with U9G A12U, G5U G22A is higher in self-cleavage: 0.14 for the first, 0.16 for the second.

First: A12C U28C
Second: U32G C42G
The self-cleavage of the first is lower: 0.02 for the first, 0.14 for the second.

Going from C10A A26G to G1U U43A, the self-cleavage falls from 0.12 to 0.05.

First: G1U A24C
Second: A4C
The self-cleavage of the first is higher: 0.36 for the first, 0.19 for the second.

C18G U34C and A6G G33C are the same in self-cleavage: 0.03 for the first, 0.03 for the second.

Compared with A6G C42U, C15U G17U is higher in self-cleavage: 0.07 for the first, 0.11 for the second.

Compared with G7A A11G, G2U C3A is higher in self-cleavage: 0.02 for the first, 0.48 for the second.

Compared with C3G A12U, C23U A25G is higher in self-cleavage: 0.43 for the first, 1.17 for the second.

Compared with G2A G7U, C3G G17U is lower in self-cleavage: 0.17 for the first, 0.15 for the second.

First: A14G G30C
Second: G1U G5U
The self-cleavage of the first is higher: 0.24 for the first, 0.09 for the second.

Going from A14C U43G to A16G C45G, the self-cleavage rises from 0.01 to 0.11.

Compared with A6G G27A, A4C C13G is higher in self-cleavage: 0.14 for the first, 0.17 for the second.

Compared with G19U G21U, G7A A25U is lower in self-cleavage: 0.58 for the first, 0.25 for the second.

Going from U9C U43G to G19U C23U, the self-cleavage rises from 0.01 to 1.03.

Compared with C18A A25G, G1U C45U is higher in self-cleavage: 0.19 for the first, 0.38 for the second.

Compared with G27C U28C, A4G G5C is lower in self-cleavage: 1.12 for the first, 0.07 for the second.

Work on C13A G22U yielded a self-cleavage of 0.11.
